Source: article PMC2853113
Substitutions are numbered along the chain they refer to. Read-outs that look alike come from different tables or passages of the source.

Key:
[1] = molecular target: T1, YvoA wild-type (Bacillus subtilis, UniProt O34817 1-243); assay: ITC
T1 sequence: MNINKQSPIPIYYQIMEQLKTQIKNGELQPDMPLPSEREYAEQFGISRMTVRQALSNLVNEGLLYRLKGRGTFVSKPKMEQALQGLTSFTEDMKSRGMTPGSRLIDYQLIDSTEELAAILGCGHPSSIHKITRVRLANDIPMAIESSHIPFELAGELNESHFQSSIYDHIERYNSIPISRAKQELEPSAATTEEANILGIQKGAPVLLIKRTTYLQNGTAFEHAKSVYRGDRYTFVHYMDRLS

[2] = molecular target: T2, YvoA-E61C-L242C (Bacillus subtilis, UniProt O34817 1-243, E61C;L242C); assay: analytical gel filtration
T2 sequence: T1 sequence with E61C, L242C

[3] = molecular target: T1, YvoA wild-type; assay: ITC; remark: listed apart in the source
[4] = molecular target: T3, YvoA-K24C-G97C (Bacillus subtilis, UniProt O34817 1-243, K24C;G97C); assay: analytical gel filtration
T3 sequence: T1 sequence with K24C, G97C

B1: YvoA operator dsDNA (18mer) (dsDNA)
DNA 1: ATTGGTATAGATCACTAG
DNA 2: CTAGTGATCTATACCAAT
**Q.** Which results are given for B1?
**A.** Kd [1]: 131 nM; binding result [2]: binds; Kd [3]: 2.9 nM; binding result [4]: binds
